The values that follow come from publication PMC5651844, “YEATS2 links histone acetylation to tumorigenesis of non-small cell lung cancer” (Nature Communications, 2017).

In the assay the target is YEATS domain of human YEATS2 (aa 201-332), tag removed (human) (UniProt Q9ULM3). Briefly: ITC; YEATS2_(201-332) titrated with histone peptides, 15 C, 20 mM Tris 7.5, 0.5 M sodium citrate, 5% glycerol, 2 mM beta-mercaptoethanol; one set of binding sites model.
Chain of YEATS domain of human YEATS2 (aa 201-332), tag removed (human) (Q9ULM3 201-332): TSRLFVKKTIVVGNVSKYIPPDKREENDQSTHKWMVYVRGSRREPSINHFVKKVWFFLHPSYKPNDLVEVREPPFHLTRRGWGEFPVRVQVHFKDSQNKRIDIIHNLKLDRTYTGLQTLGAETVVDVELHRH

Chain of histone H3 P30A mutant peptide (peptide; modification not given) (chain, as listed by the source P30A): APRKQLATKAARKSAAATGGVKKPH

“histone H3 P30A mutant peptide (peptide; modification not given)” had a fold drop against the wild-type H3K27ac peptide of 2 fold.
